The values that follow come from patent US20220340642A1 (Kyowa Kirin, published 2022).

The target in experiment [1] is T1, soluble recombinant of cynomolgus monkey FasL (His6, Pro133-Leu280) (cynomolgus monkey, UniProt P63308 133-280).
T1 construct: also called His6-cynoFasL
T1 sequence: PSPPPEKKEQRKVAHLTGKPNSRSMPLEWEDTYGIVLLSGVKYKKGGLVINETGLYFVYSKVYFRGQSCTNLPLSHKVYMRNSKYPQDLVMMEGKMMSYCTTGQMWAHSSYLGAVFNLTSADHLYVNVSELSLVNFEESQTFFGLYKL
The experiment in a line: SPR, binder captured on Protein A chip. How it is done: (§1) The binding activity to human and cynomolgus monkey DcR3 ligand trimers were analyzed by the SPR method. BIAcore T-100 (GE Healthcare) was used for measurement of the binding activities to human LIGHT, cynomolgus monkey LIGHT, human TL1A and cynomolgus monkey TL1A, and BIAcore T-200 (GE Healthcare) was used for measurement of the binding activities to human FasL and cynomolgus monkey FasL. As the buffer, HBS-EP+Buffer was used.
(§2) Various DcR3 variants were injected into Series S Sensor Chip Protein A (GE Healthcare) at 10 μL/min for 30 seconds and captured. Meanwhile, the buffer containing no protein was injected into a reference flow cell. Thereafter, as an analyte, each human DcR3 ligand trimer or each cynomolgus monkey DcR3 ligand trimer diluted to 0.08 to 20 nmol/L was injected. A human LIGHT trimer, a human TL1A trimer or each cynomolgus monkey DcR3 ligand trimer was injected at the flow rate of 30 μL/min for 2 minutes to monitor the binding, and subsequently the buffer was injected for 5 minutes to monitor dissociation. A human FasL trimer was injected at 30 μL/min for 1 minute to monitor the binding, and subsequently the buffer was injected for 3 minutes to monitor dissociation. Then, 3 mol/L magnesium chloride was injected at 30 μL/min for 1 minute to perform a regeneration reaction.
Background: Surface plasmon resonance follows binding to a sensor surface in real time, without labels.

Experiment [2] deals with T2, soluble recombinant of cynomolgus monkey TL1A (His6, GS linker, Leu72-Leu251) (cynomolgus monkey).
T2 construct: also called His6-cynoTL1A
T2 chain: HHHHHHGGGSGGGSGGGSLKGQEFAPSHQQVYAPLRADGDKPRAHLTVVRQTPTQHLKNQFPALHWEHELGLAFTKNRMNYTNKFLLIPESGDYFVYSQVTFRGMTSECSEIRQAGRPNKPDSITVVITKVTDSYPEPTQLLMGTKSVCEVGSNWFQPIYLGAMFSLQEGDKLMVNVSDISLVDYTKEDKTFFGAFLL
As to the kind of experiment: SPR, binder captured on Protein A chip. How it is done: as §1, §2

Experiment [3] concerns the target T3, soluble recombinant of human TL1A (His6, GS linker, Leu72-Leu251) (human, UniProt O95150 72-251).
T3 construct: also called His6-TL1A; hTL1A
T3 sequence: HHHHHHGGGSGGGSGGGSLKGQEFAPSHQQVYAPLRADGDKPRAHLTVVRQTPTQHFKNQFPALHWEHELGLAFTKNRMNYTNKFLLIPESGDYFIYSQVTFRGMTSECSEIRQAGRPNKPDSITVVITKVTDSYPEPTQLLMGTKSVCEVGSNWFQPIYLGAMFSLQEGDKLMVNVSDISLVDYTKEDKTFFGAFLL
As to the kind of experiment: SPR, binder captured on Protein A chip. How it is done: as §1, §2

Experiment [4] concerns the target T4, FLAG-cynoLIGHT (FLAG tag, cynomolgus monkey LIGHT Asp74-Val240) (cynomolgus monkey).
T4 construct: SEC trimer fraction; also called soluble cynomolgus monkey LIGHT trimer
T4 chain: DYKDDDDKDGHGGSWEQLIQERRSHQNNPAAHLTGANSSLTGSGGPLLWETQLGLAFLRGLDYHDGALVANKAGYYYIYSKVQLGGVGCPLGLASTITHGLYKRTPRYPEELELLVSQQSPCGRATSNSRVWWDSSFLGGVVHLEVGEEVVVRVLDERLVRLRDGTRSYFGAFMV
As to the kind of experiment: SPR, binder captured on Protein A chip. How it is done: as §1, §2

In experiment [5] the target is T5, Human His6 Fas Ligand/TNFSF6 (Cell Signaling Technology, Inc.) (human, UniProt P48023 133-281).
T5 construct: Bought; confirmed as a trimer by SEC-MALS; also called recombinant human His6 Fas Ligand; soluble human FasL trimer
T5 sequence: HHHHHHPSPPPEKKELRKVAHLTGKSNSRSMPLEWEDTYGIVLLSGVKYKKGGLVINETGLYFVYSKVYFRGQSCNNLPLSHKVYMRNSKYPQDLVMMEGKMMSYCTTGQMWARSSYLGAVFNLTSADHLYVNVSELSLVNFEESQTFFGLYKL
As to the kind of experiment: SPR, binder captured on Protein A chip. How it is done: as §1, §2

The target of experiment [6] is T6, FLAG-LIGHT (FLAG tag, human LIGHT Asp74-Val240) (human, UniProt O43557 74-240).
T6 construct: SEC trimer fraction; also called soluble recombinant FLAG-LIGHT trimer; soluble human LIGHT trimer
As to the kind of experiment: SPR, binder captured on Protein A chip. How it is done:
as §1, §2

Experiment [7] has as its target T7, soluble recombinant of human LIGHT (His10, GS linker, Asp74-Val240).
T7 chain: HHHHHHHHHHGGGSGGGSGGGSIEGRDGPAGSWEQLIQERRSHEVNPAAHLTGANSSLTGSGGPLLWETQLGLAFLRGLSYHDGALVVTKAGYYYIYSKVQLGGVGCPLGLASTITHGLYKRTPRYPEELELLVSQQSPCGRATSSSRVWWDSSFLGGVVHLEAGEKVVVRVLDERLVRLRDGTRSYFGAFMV
The experiment in a line: BIAcore SPR. Summed up: (§3)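 On a BIAcore T-100 or T-200 instrument (GE Healthcare), with HBS-EP+ Buffer, surface plasmon resonance measured binding of each test molecule to soluble recombinant His-tagged LIGHT, TL1A or FasL. These proteins were of human or cynomolgus monkey origin. The dissociation constant (Kd, nM) was derived from the resulting data.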

Experiment [8] deals with T8, soluble recombinant of human FasL (His6, Pro134-Leu281) (UniProt P48023 134-281).
T8 chain: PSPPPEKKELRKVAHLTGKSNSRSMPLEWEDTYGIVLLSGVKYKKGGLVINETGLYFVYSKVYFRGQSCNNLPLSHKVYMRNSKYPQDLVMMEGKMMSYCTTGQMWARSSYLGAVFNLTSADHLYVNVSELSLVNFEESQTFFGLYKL
The experiment in a line: BIAcore SPR. Put shortly:
as §3

Experiment [9] concerns the target T9, soluble recombinant of human TL1A (His6, GS linker, Leu72-Leu251) (UniProt O95150 72-251).
T9 chain: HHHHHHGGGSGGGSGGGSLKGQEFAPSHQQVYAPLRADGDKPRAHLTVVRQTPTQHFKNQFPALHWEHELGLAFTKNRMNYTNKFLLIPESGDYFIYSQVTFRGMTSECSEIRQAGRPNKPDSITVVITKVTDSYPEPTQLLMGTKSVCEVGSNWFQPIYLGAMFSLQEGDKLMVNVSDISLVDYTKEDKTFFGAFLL
The experiment in a line: BIAcore SPR. Put shortly: as §3

B1: chimera A-E57V-Fc (Eg1S LALAGANA) (Fc fusion)
chain: ETFPPKYLHYDEETSHQLLCDKCPPGTYLKQHCTAKWKTVCAPCPPRHYTQFWNYLVRCRYCNVLCGEREEEARACHATHNRACRCRTGFFAHAGFCLEHASCPPGAGVIAPGTPSQNTQCQPCPDGFFSNETSSKAPCRKHTNCSVFGLLLTQKGNATHDNICSGNSESTQKEPKSSDKTHTCPPCPAPEAAGAPSVFLFPPKPKDTLMISRTPEVTCVVVDVSHEDPEVKFNWYVDGVEVHNAKTKPREEQYNSTYRVVSVLTVLHQDWLNGKEYKCKVSNKALPAPIEKTISKAKGQPREPQVYTLPPSRDELTKNQVSLTCLVKGFYPSDIAVEWESNGQPENNYKTTPPVLDSDGSFFLYSKLTVDKSRWQQGNVFSCSVMHEALHAHYTQKSLSLSPGK
Broadly, the Kd is the equilibrium constant for the complex coming apart. On to B1, for which the binding result in experiment [1], in experiment [2], in experiment [3], in [4], in experiment [5] and in experiment [6] was “binds” each time. Moreover, the Kd in experiment [7] amounted to 0.33 nM; in [8], 5.2 nM; in experiment [9] it was 0.23 nM.

B2: chimera A-E57K-Fc (Eg1S LALAGANA) (Fc fusion)
chain: ETFPPKYLHYDEETSHQLLCDKCPPGTYLKQHCTAKWKTVCAPCPPRHYTQFWNYLKRCRYCNVLCGEREEEARACHATHNRACRCRTGFFAHAGFCLEHASCPPGAGVIAPGTPSQNTQCQPCPDGFFSNETSSKAPCRKHTNCSVFGLLLTQKGNATHDNICSGNSESTQKEPKSSDKTHTCPPCPAPEAAGAPSVFLFPPKPKDTLMISRTPEVTCVVVDVSHEDPEVKFNWYVDGVEVHNAKTKPREEQYNSTYRVVSVLTVLHQDWLNGKEYKCKVSNKALPAPIEKTISKAKGQPREPQVYTLPPSRDELTKNQVSLTCLVKGFYPSDIAVEWESNGQPENNYKTTPPVLDSDGSFFLYSKLTVDKSRWQQGNVFSCSVMHEALHAHYTQKSLSLSPGK
B2: the binding result in [1], in [2], in experiment [3], in experiment [4], in experiment [5] and in experiment [6] was “binds” in each case. Further, the Kd in experiment [7] stood at 0.34 nM; in [8] it was 3.3 nM; in experiment [9], 0.24 nM.

B3: chimera A-E57K_R58E-Fc (Eg1S LALAGANA) (Fc fusion)
chain: ETFPPKYLHYDEETSHQLLCDKCPPGTYLKQHCTAKWKTVCAPCPPRHYTQFWNYLKECRYCNVLCGEREEEARACHATHNRACRCRTGFFAHAGFCLEHASCPPGAGVIAPGTPSQNTQCQPCPDGFFSNETSSKAPCRKHTNCSVFGLLLTQKGNATHDNICSGNSESTQKEPKSSDKTHTCPPCPAPEAAGAPSVFLFPPKPKDTLMISRTPEVTCVVVDVSHEDPEVKFNWYVDGVEVHNAKTKPREEQYNSTYRVVSVLTVLHQDWLNGKEYKCKVSNKALPAPIEKTISKAKGQPREPQVYTLPPSRDELTKNQVSLTCLVKGFYPSDIAVEWESNGQPENNYKTTPPVLDSDGSFFLYSKLTVDKSRWQQGNVFSCSVMHEALHAHYTQKSLSLSPGK
Regarding B3, the binding result in experiment [1], in experiment [2], in [3], in experiment [4], in experiment [5] and in [6] was “binds” in each case. Besides, the Kd stood at 0.29 nM in [7], 4.6 nM in [8] and 0.16 nM in [9].
